Experimental data reported in patent publication US20190352343A1 (AUCKLAND UNISERVICES, published 2019).

How the values were obtained:
[1] = molecular target: Cpe0147^439-563 truncated protein domain (Clostridium perfringens); assay: SDS-PAGE, ester bond ligation in the presence of calcium
[2] = molecular target: Cpe0147^439-563 truncated protein domain (Clostridium perfringens); assay: SDS-PAGE, ester bond ligation in the presence of glycerol

Which results are given for Cpe0147^565-587 synthetic peptide?
percent of protein converted (ester bond formed) [1]: 40%; percent of protein converted (ester bond formed) [2]: 70%
